According to US20230090114A1, “METHODS FOR PROMOTING WEIGHT LOSS” (89BIO LTD., priority 2020, published 2023):

What was measured:
[1] = Total spontaneous activity and rearing (METABOpack sessions); format: in vivo, CD-1 mice; conditions: T2; WD; 0.3 and 3 mg/kg; vs Liraglutide
Protocol: Horizontal spontaneous activity and rearing behavior were recorded every second by the Physiocage System. The analysis was performed by plotting data every 30 minutes in order to obtain the kinetic of the behaviors. For each mouse, the sums of the activity and rearing events were calculated for each nycthemeral phase (Diurnal period or DP; Nocturnal period or NP and Whole Day or WD). The means per nycthemeral phase were then calculated for each group for statistical comparisons.

[2] = Food intake and meal pattern (daily and METABOpack sessions); format: in vivo, CD-1 mice
Source text: During the METABOpack™ sessions, animals were housed singly in the Physiocage System (Panlab/Harvard apparatus), which was composed of: • 8 physiocages (LE1301) • 8 Air tight lids for mouse (LE1303) • 8 grid floors for mouse (LE1317) • 8 Feeding bottles for mouse (LE1306) • 2 Air supply and switching units for up to 4 home cages each (LE4004FL) • 1 O2/CO2 analyzer (LE405) • 1 acquisition software suite, METABOLISM (V3.0).
From T1 to T28, vehicle and 89BIO100 (at the 3 different doses) were administrated by subcutaneous (SC) injection three times a week, while the treatment with liraglutide was administrated by subcutaneous route, twice a day, every day. It was important to notice that the first dosing was done just before the […] (at 9:00 AM) and the second dosing was done 8 hours after the first one (at 5:00 PM). Throughout the treatment period, FI and BW were daily measured.
In the present project, a METABOpack™ session was consisted of a 12-hour period of acclimation followed by a 48-hour period of recording of the respiratory exchanges, FI, water intake (WI) and locomotor activity of each animal.
Following this acclimation period, the parameters cited above were automatically and simultaneously recorded for 48 hours, except for body weight that was measured manually every day.
The METABOpack™ sessions were conducted at the start (T1-2), the middle (T14-15) and the end (T26-27) of the treatment period.
Meal pattern analysis was performed on high-resolution recordings of food intake obtained during the METABOpack™ sessions. The Physiocage system allowed recording food intake with an accuracy of 1 measure per second and a precision of 0.02 g. The physiocages were equipped with a system allowing to precisely collect the spillage of the animals, by the mean of a platform located under the food dispenser. This platform and the spillages it contains, were permanently weighted by the system and the values added to the total weight of the food dispenser. With this system, the progressive decrease in the food dispenser net weight only reflected the food consumption of the animals. The analysis was performed by plotting data every minute. Each weight variation of the feeding container (transition from one stable value to another) was considered as a “bout”, with each bout separated from each other bout by an “inter-bout interval”. A meal consisted of at least one bout, with each meal separated from each other meal by a “post-meal interval”. For the purpose of this study, a meal was defined as any feeding episode causing a change in food weight of 0.02 g and separated by at least 5 min from any subsequent episode. Based on this criterion, the following parameters were calculated for each experimental group: […]

[3] = T1, WD and NP, three doses, vs Liraglutide
[4] = T2, WD, three doses, vs Liraglutide
[5] = T2, WD, three doses, vs vehicle
[6] = first meal on T14, 3 mg/kg, vs 1 mg/kg
[7] = first meal on T14, 3 mg/kg, vs vehicle

B1: Mutant FGF21-GalNAc-SA-PEG-20 kDa (conjugate)
chain: MHPIPDSSPLLQFGGQVRQRYLYTDDAQQTEAHLEIREDGTVGGAADQSPESLLQLKALKPGVIQILGVKTSRFLCQRPDGALYGSLHFDPEACSFRELLLEDGYNVYQSEAHGLPLHLPGNKSPHRDPAPRGPARFLPLPGLPPALPEPPGILAPQPPDVGSSDPLSMVGPTQGASPSYAS
total spontaneous activity [1]: higher total spontaneous activity
mean meal size ([2]; BIO89-100-treated mice): no change
mean meal number ([2]; BIO89-100-treated mice, related to increased FC): increase in mean meal number
cumulative food intake ([2]; T1, 0.3 mg/kg, vs vehicle, at 5 h, 6 h, 15-24 h): increased
cumulative food intake ([2]; T1, 1 mg/kg, vs vehicle, at 1 h, 3 h, 18-24 h): increased
cumulative food intake ([2]; T1, 3 mg/kg, vs vehicle, 10-12 h and 14-17 h): increased
mean meal size ([2]; T1, DP, 0.3 mg/kg, vs Liraglutide): increased
mean meal size ([2]; T1, DP, 3 mg/kg, vs 0.3 and 1 mg/kg): decreased
mean meal size ([2]; T1, DP, 3 mg/kg, vs vehicle): reduced
mean food intake ([2]; T1, DP, between groups): no significant difference
mean food intake ([2]; T1, NP and WD, between the three 89BIO-100 groups): No significant difference
mean food intake ([2]; T1, NP and WD, whatever the dose, vs Liraglutide): increase in mean food intake
mean food intake ([2]; T1, NP, 3 mg/kg, vs vehicle): higher
mean meal number [2, 3]: increased
mean satiety ratio [2, 3]: decreased
mean food intake ([2]; T1, WD, 0.3 and 1 mg/kg, vs vehicle): increased
cumulative food intake ([2]; T1, between the three 89BIO-100 groups): no significant difference
cumulative food intake ([2]; T1, three doses, vs Liraglutide, 5-24 h): increase in cumulative food intake
cumulative food intake ([2]; T2, 0.3 mg/kg, vs Liraglutide, at 5 h, 6 h, 10-24 h): increased
cumulative food intake ([2]; T2, 1 mg/kg, vs Liraglutide, 4-24 h): increased
cumulative food intake ([2]; T2, 3 mg/kg, vs 0.3 mg/kg, at 1 h and 2 h only): slightly increased
cumulative food intake ([2]; T2, 3 mg/kg, vs Liraglutide, over 24 h except at 4 h): increased
cumulative food intake ([2]; T2, 3 mg/kg, vs vehicle, over 24 h except at 4 h): increased
cumulative food intake ([2]; T2, 0.3 and 1 mg/kg, vs vehicle, 13-24 h): increase in cumulative food intake
cumulative food intake ([2]; T2, 1 vs 3 mg/kg and 0.3 vs 1 mg/kg): no significant difference
mean food intake ([2]; T2, DP, between groups): no significant difference
mean food intake ([2]; T2, NP and WD, between the three 89BIO-100 groups): No significant difference
mean food intake ([2]; T2, NP and WD, whatever the dose, vs Liraglutide): increase in mean food intake
mean food intake ([2]; T2, NP, 3 mg/kg, vs vehicle): higher
mean meal number ([2]; T2, WD, 0.3 and 3 mg/kg, vs vehicle): increased
mean meal number [2, 4]: increased
mean post-meal interval [2, 4]: decreased
satiety ratio [2, 4]: decreased
mean food intake [2, 5]: increased
mean post-meal interval [2, 5]: shorter
mean food intake ([2]; T15, WD only, whatever the dose, vs Liraglutide): increased
mean food intake ([2]; T15, WD only, whatever the dose, vs vehicle): increased
mean meal duration ([2]; T27, 3 mg/kg, vs vehicle, 0.3 and 1 mg/kg groups): significant increase in mean meal duration
mean post-meal interval ([2]; first meal on T14, 0.3 mg/kg, vs vehicle): reduction in mean post-meal interval
mean satiety ratio ([2]; first meal on T14, 1 mg/kg, vs 0.3 mg/kg): higher
mean post-meal interval ([2]; first meal on T14, 1 mg/kg, vs Liraglutide): increase in mean post-meal interval
mean post-meal interval [2, 6]: reduction
mean satiety ratio [2, 6]: reduction
mean post-meal interval [2, 7]: decrease
mean satiety ratio [2, 7]: decrease
mean post-meal interval ([2]; first meal on T15, 1 mg/kg, vs Liraglutide): increase in mean post-meal interval
mean post-meal interval ([2]; first meal on T15, 3 mg/kg, vs 1 mg/kg): lower
mean post-meal interval ([2]; first meal on T15, 3 mg/kg, vs vehicle): decrease in mean post-meal interval
mean first meal latency ([2]; first meal on T15, three doses, vs vehicle): reduced
mean first meal latency ([2]; first meal on T26, 3 mg/kg, vs Liraglutide): increase in mean first meal latency
mean first meal latency ([2]; first meal on T26, 0.3 and 1 mg/kg, vs vehicle): increase in mean first meal latency
increase in FC ([2]; naive CD-1 mice, 0.3-3.0 mg/kg SC 3qW x 4 weeks, up to): up to +94%
food intake ([2]; summary, significantly increased on T1, T2 and T15): increased
